This is an account of results in patent US20260098102A1 (NATIONAL UNIVERSITY CORPORATION KOBE UNIVERSITY, published 2026).

B1: humanized anti-SIRPA antibody hD13_H1L3 (antibody, human IgG4 S228P, kappa, F234A L235A, V domains shown)
VH: QVQLVESGGGVVQPGRSLRLSCAASGFTFSDYGMIWVRQAPGKGLEWVASISSSSSYIYYADSVKGRFTISRDNSKNRLYLQMNSLRAEDTAVYYCARRYYGFNYPFDYWGQGTMVTVSS
VL: DTQLTQSPSSLSASVGQRVTITCGASKSVRTYMHWYQQKPGKQPKLLIYSASNLEAGVPSRFSGSGSGTDFTLTISSLQPEDFATYYCQQSNEPPYTFGQGTKLEIKR
notes: hH1 heavy chain (IgG4proFALA) and hL3 kappa light chain; also called hD13_HIL3; HIL3 antibody
B2: humanized anti-SIRPA antibody hD13_H2L3 (antibody, human IgG4 S228P, kappa, F234A L235A, V domains shown)
VH: B1 VH with Q1E, R78T
VL: B1 VL
notes: hH2 heavy chain (IgG4proFALA) and hL3 kappa light chain; also called H2L3 antibody
B3: humanized anti-SIRPA antibody hD13_H1L4 (antibody, human IgG4 S228P, kappa, F234A L235A, V domains shown)
VH: B1 VH
VL: DTVLTQSPDSLAVSLGQRATINCGASKSVRTYMHWYQQKPGQQPKLLIYSASNLEAGVPSRFSGSGSGTDFTLTISSLQAEDVAVYYCQQSNEPPYTFGQGTKVEIKR
notes: hH1 heavy chain (IgG4proFALA) and hL4 kappa light chain; also called hD13_HIL4; hD13_HIL4h
B4: humanized anti-SIRPA antibody hD13_H2L2 (antibody, human IgG4 S228P, kappa, F234A L235A, V domains shown)
VH: B1 VH with Q1E, R78T
VL: B1 VL with D1A, T2I, Q43A
notes: hH2 heavy chain (IgG4proFALA) and hL2 kappa light chain; also called H2L2 antibody
B5: human chimeric anti-SIRPA antibody cD13 (antibody, human IgG4 S228P, kappa, F234A L235A, V domains shown)
VH: EVQLVESGGGLVQPGRSLKLSCLASGFTFSDYGMIWVRQAPGKGLEWVASISSSSSYIYYADTVKGRFTISRENAKNTLFLHMTSLRSEDTALYYCARRYYGFNYPFDYWGQGVMVTVSS
VL: DTVLTQSPALAVSLGQRVTISCGASKSVRTYMHWYQQKSGQQPKLLIYSASNLEAGVPSRFSGSGSGTDFTLTIDPVEADDIANYYCQQSNEPPYTFGAGTKLELKR
notes: Human IgG4proFALA heavy chain, human kappa light chain; also called cD13 (IgG4pf); human chimeric antibody D13

Where a chain is given by its changes, count along the chain named.

The target in one assay is T1, SIRPA_V1_IgV (human, UniProt P78324 31-149).
T1 construct: Secreted recombinant protein from FreeStyle 293F cells
T1 sequence (P78324 other isoform, or with tags, fused parts or gaps limits assumed): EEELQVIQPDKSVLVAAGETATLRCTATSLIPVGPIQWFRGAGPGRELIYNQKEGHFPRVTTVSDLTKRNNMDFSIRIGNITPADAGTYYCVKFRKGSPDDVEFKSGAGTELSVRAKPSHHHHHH
As to the kind of experiment: SPR Biacore T200, antibody captured on anti-human IgG (Fc), SIRPA_V1_IgV as analyte, 1:1 model. The method, then: The dissociation constants of hD13_HIL3, hD13_HIL4, hD13_H2L2, and hD13_H2L3 prepared in Example 7 against human SIRPA_V1_IgV and monkey SIRPA_ECD prepared in Example 1 were measured by a capture method of capturing a humanized antibody as a ligand to an Anti-Human IgG (Fc) antibody immobilized using Human Antibody Capture Kit (GE Healthcare Bioscience Corp.) and measuring an antigen as an analyte, using Biacore T200 (GE Healthcare Bioscience Corp.). HBS-EP+ (GE Healthcare Bioscience Corp.) was used as a running buffer, and CM5 (GE Healthcare Bioscience Corp.) was used as a sensor chip. Onto the chip, 1 μg/mL humanized antibody was added at 10 μL/min for 60 seconds, and then a serially diluted solution (0.5 to 8 μg/mL) of human SIRPA protein or a serially diluted solution (1 to 16 μg/mL) of monkey SIRPA protein was added as an antigen at a flow rate of 30 μL/min for 120 seconds, and subsequently the dissociation phase for 600 seconds was monitored. As a regenerant, 3 M magnesium chloride (GE Healthcare Bioscience Corp.) was added at a flow rate of 20 μL/min for 30 seconds. For data analysis, a binding rate constant (ka), a dissociation rate constant (kd), and a dissociation constant (KD; KD=kd/ka) were calculated using a 1:1 binding model.
A general note: SPR reads the build-up and loss of mass on a sensor chip optically.
B1 showed a Kd of 0.0785 nM.
Turning to B2, the affinity, expressed as Kd, was 0.0859 nM.
Same read-out and setting: with B3 the figure was 0.107 nM.
On the same count and under the same terms, with B4 the figure was 0.131 nM.

In a further assay the target is T2, human SIRPA_V2 protein (human, UniProt P78324 31-504).
T2 construct: Expressed on 293α cells from pcDNA3.2 V5-DEST or pFLAG V5-DEST (FLAG-tagged) vectors; also called human SIRPA Variant 2; ECD variant (full-length, amino acids 1 to 504)
As to the kind of experiment: cell-based ELISA on 293α cells expressing FLAG-tagged SIRPA_V2; Abs 490 normalized to FLAG tag [ii]. The method, then: (§1) The 293a cells, described in Example 1)-6, were prepared at 5× 10⁵ cells/mL in a 10% FBS-containing DMEM medium. pFLAG V5-DEST-SIRPA_V1-V10, pFLAG V5-DEST-monkey SIRPA, pFLAG V5-DEST-mouse SIRPA, or pFLAG V5-DEST was introduced into the cells using Lipofectamine LTX (Invitrogen), and 100 μL each was aliquoted to a 96-well plate (Corning Incorporated) and cultured overnight in a 10% FBS-containing DMEM medium at 37° C. under a 5% CO₂ condition. The obtained introduced cells were used for cell-based ELISA in a state that they adhered. After the culture supernatant was removed, 50 μL per well of hD13_HIL3, hD13_HIL4h, hD13_H2L2, hD13_H2L3, or cD13 prepared in Examples 6 and 7 or a control antibody was added to each of various SIRPA genes-introduced cells at a final concentration of 0 to 10,000 ng/ml, and the mixture was allowed to stand at 4° C. for one hour. Thereafter, binding to human SIRPA was evaluated in the same manner as in Example 5-1.
As for B5, the “EC50 (read off the curve)” value was roughly 0.03 µg/mL.
As for B1, the “EC50 (read off the curve)” value was roughly 0.03 µg/mL.
For B2, the “EC50 (read off the curve)” value was roughly 0.03 µg/mL.
On the same count and under the same terms, with B3 the figure was roughly 0.03 µg/mL.
Consider B4, for which the “EC50 (read off the curve)” value was roughly 0.03 µg/mL.

The target of the next assay is T3, human SIRPA_V8 (human, UniProt P78324 31-504).
T3 construct: FLAG-tagged (pFLAG V5-DEST), on 293α cells; also called human SIRPA Variant 8
As to the kind of experiment: cell-based ELISA on 293α cells expressing FLAG-tagged SIRPA_V8; Abs 490 normalized to FLAG tag [iv]. The method, then:
as §1
As for B5, the “EC50 (read off the curve)” value was roughly 0.04 µg/mL.
With B1, the “EC50 (read off the curve)” value is roughly 0.04 µg/mL.
With B2, the “EC50 (read off the curve)” value is roughly 0.04 µg/mL.
Same read-out and setting: for B3 the value was roughly 0.04 µg/mL.
The same measure, in the same setting: with B4 the figure was roughly 0.04 µg/mL.

Another assay has as its target T4, monkey SIRPA protein (cynomolgus monkey, UniProt P78324 31-504 (human entry)).
T4 construct: Expressed on 293α cells from pcDNA3.2 V5-DEST or pFLAG V5-DEST vectors; also called cynomolgus monkey SIRPA; cSIRPA
T4 chain: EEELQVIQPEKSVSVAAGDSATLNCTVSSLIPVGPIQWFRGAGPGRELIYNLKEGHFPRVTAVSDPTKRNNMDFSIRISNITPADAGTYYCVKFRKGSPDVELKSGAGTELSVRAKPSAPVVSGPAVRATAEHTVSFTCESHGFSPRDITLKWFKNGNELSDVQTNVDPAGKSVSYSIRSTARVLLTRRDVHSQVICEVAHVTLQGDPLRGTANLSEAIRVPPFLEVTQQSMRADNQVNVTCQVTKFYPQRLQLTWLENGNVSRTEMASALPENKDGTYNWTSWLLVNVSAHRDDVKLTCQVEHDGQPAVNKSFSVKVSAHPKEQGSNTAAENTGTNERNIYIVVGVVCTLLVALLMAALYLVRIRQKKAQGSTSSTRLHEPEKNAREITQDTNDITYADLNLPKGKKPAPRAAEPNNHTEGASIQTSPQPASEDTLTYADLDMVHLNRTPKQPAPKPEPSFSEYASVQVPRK
In words: cell-based ELISA on 293α cells expressing FLAG-tagged monkey SIRPA; Abs 490 normalized to FLAG tag [iii]. The method, then:
as §1
Turning to B5, the “EC50 (read off the curve)” value is roughly 0.03 µg/mL.
Same read-out and setting: with B1 the figure was roughly 0.03 µg/mL; with B2, roughly 0.03 µg/mL.
On to B3, for which the “EC50 (read off the curve)” value is roughly 0.03 µg/mL.
For B4, the “EC50 (read off the curve)” value was roughly 0.03 µg/mL.

Another assay addresses T4, monkey SIRPA protein. As to the kind of experiment: blocking cell-based ELISA: peroxidase-labeled CD47-Fc (1 µg/mL) on 293α cells expressing monkey SIRPA; y axis = CD47-Fc signal relative to no antibody (100). The method, then:
After the culture supernatant of human SIRPA or monkey SIRPA expression vector-introduced 293α cells prepared in Example 8)-1 was removed, 50 μL per well of hD13_HIL3, hD13_HIL4h, hD13_H2L2, or hD13_H2L3 diluted with 5% FBS-containing PBS to a final concentration of 0 to 10,000 ng/ml was added to each of pcDNA3.2 V5-DEST-SIRPA_V1, pcDNA3.2 V5-DEST-SIRPA_V2, pcDNA3.2 V5-DEST-monkey SIRPA, and pcDNA3.2 V5-DEST-introduced 293α cells, immediately followed by addition of peroxidase-labeled CD47-Fc prepared with 5% FBS-containing PBS at 1 μg/mL, and the mixture was allowed to stand at 4° C. for one hour. Thereafter, the SIRPA-CD47 binding inhibitory activity was evaluated in the same manner as in 1)-6-3.
For the molecule B5, the “IC50 (read off the curve)” value was roughly 0.9 µg/mL.
On the same count and under the same terms, with B1 the figure was roughly 0.6 µg/mL; with B2, roughly 0.8 µg/mL; with B3, roughly 1 µg/mL.
Still for that read-out and setting: with B4 the figure was roughly 0.9 µg/mL.

Broadly, the Kd is the constant that tells how readily two partners part at equilibrium. Usually EC50 (read off the curve) stands for the concentration at which the effect is half-maximal.
